According to the supplement of paper PMC9112550, “Optimization of the antimicrobial peptide Bac7 by deep mutational scanning” (BMC Biology, 2022):

System: Escherichia coli TOP10
Assay: shrunken log2 fold change of peptide-encoding DNA abundance (4.5 h post-induction vs induction); higher = less antimicrobial activity (less host growth inhibition)
Conditions: time post-induction: 4.5 h; library: site-saturation at positions 5, 18, 19, 20
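Further: peptides expressed intracellularly from a pBAD plasmid library in pooled LB shake-flask culture, induced with 0.3% L-arabinose, DNA abundance read by NGS, three biological replicates, DESeq2 with apeglm shrinkage.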

| Sequence | shrunken log2 fold change |
| --- | --- |
| RRIRWRPPRLPRPRPRPTQKPRP | 0.482 |
| RRIRWRPPRLPRPRPRPTQNPRP | 0.637 |
| RRIRWRPPRLPRPRPRPTQPPRP | 0.398 |
| RRIRWRPPRLPRPRPRPTRDPRP | 0.0468 |
| RRIRWRPPRLPRPRPRPTRLPRP | 0.411 |
| RRIRWRPPRLPRPRPRPTSEPRP | 0.116 |
| RRIRWRPPRLPRPRPRPTSFPRP | -0.0166 |
| RRIRWRPPRLPRPRPRPTSPPRP | 0.217 |
| RRIRWRPPRLPRPRPRPTTSPRP | 0.508 |
| RRIRWRPPRLPRPRPRPTWEPRP | 0.314 |
| RRIRWRPPRLPRPRPRPTWLPRP | 0.694 |
| RRIRWRPPRLPRPRPRPTWMPRP | -0.029 |
| RRIRWRPPRLPRPRPRPTYEPRP | 0.207 |
| RRIRWRPPRLPRPRPRPTYRPRP | 0.146 |
| RRIRWRPPRLPRPRPRPVAHPRP | 0.00472 |
| RRIRWRPPRLPRPRPRPVAVPRP | 0.465 |
| RRIRWRPPRLPRPRPRPVCDPRP | 0.534 |
| RRIRWRPPRLPRPRPRPVCGPRP | 0.649 |
| RRIRWRPPRLPRPRPRPVCLPRP | 0.311 |
| RRIRWRPPRLPRPRPRPVEAPRP | 0.249 |
| RRIRWRPPRLPRPRPRPVGIPRP | -0.198 |
| RRIRWRPPRLPRPRPRPVGLPRP | 0.568 |
| RRIRWRPPRLPRPRPRPVHKPRP | 0.0181 |
| RRIRWRPPRLPRPRPRPVIEPRP | 0.0398 |
| RRIRWRPPRLPRPRPRPVINPRP | -0.0708 |

| Sequence | shrunken log2 fold change |
| --- | --- |
| RRIRWRPPRLPRPRPRPVKVPRP | -0.0471 |
| RRIRWRPPRLPRPRPRPVKWPRP | -0.0659 |
| RRIRWRPPRLPRPRPRPVLEPRP | 0.227 |
| RRIRWRPPRLPRPRPRPVLFPRP | -0.0589 |
| RRIRWRPPRLPRPRPRPVLRPRP | 0.106 |
| RRIRWRPPRLPRPRPRPVLVPRP | 0.298 |
| RRIRWRPPRLPRPRPRPVMMPRP | -0.385 |
| RRIRWRPPRLPRPRPRPVNLPRP | -0.291 |
| RRIRWRPPRLPRPRPRPVNQPRP | 0.0575 |
| RRIRWRPPRLPRPRPRPVPYPRP | -0.638 |
| RRIRWRPPRLPRPRPRPVRCPRP | 0.418 |
| RRIRWRPPRLPRPRPRPVRGPRP | 0.538 |
| RRIRWRPPRLPRPRPRPVRLPRP | 0.428 |
| RRIRWRPPRLPRPRPRPVRMPRP | -0.0133 |
| RRIRWRPPRLPRPRPRPVSIPRP | 0.235 |
| RRIRWRPPRLPRPRPRPVSTPRP | 0.138 |
| RRIRWRPPRLPRPRPRPVVEPRP | 0.0281 |
| RRIRWRPPRLPRPRPRPVWGPRP | 0.131 |
| RRIRWRPPRLPRPRPRPVWPPRP | 0.909 |
| RRIRWRPPRLPRPRPRPVYFPRP | -0.418 |
| RRIRWRPPRLPRPRPRPWCMPRP | -0.0174 |
| RRIRWRPPRLPRPRPRPWDPPRP | -0.101 |
| RRIRWRPPRLPRPRPRPWEAPRP | 0.396 |
| RRIRWRPPRLPRPRPRPWEMPRP | -0.0156 |
| RRIRWRPPRLPRPRPRPWEWPRP | -0.00895 |

| Sequence | shrunken log2 fold change |
| --- | --- |
| RRIRWRPPRLPRPRPRPWHWPRP | -0.101 |
| RRIRWRPPRLPRPRPRPWIAPRP | -0.11 |
| RRIRWRPPRLPRPRPRPWKIPRP | -0.0733 |
| RRIRWRPPRLPRPRPRPWKPPRP | -0.732 |
| RRIRWRPPRLPRPRPRPWKSPRP | 0.0574 |
| RRIRWRPPRLPRPRPRPWLAPRP | -0.168 |
| RRIRWRPPRLPRPRPRPWMAPRP | 0.0321 |
| RRIRWRPPRLPRPRPRPWMHPRP | -0.0548 |
| RRIRWRPPRLPRPRPRPWPIPRP | 0.0793 |
| RRIRWRPPRLPRPRPRPWPNPRP | 0.0899 |
| RRIRWRPPRLPRPRPRPWRSPRP | 0.49 |
| RRIRWRPPRLPRPRPRPWTMPRP | -0.146 |
| RRIRWRPPRLPRPRPRPWTQPRP | 0.272 |
| RRIRWRPPRLPRPRPRPWTVPRP | -0.0123 |
| RRIRWRPPRLPRPRPRPWVKPRP | -0.00207 |
| RRIRWRPPRLPRPRPRPWYAPRP | -0.746 |
| RRIRWRPPRLPRPRPRPWYLPRP | -0.193 |
| RRIRWRPPRLPRPRPRPWYVPRP | -0.396 |
| RRIRWRPPRLPRPRPRPWYYPRP | -0.321 |
| RRIRWRPPRLPRPRPRPYCLPRP | -0.633 |
| RRIRWRPPRLPRPRPRPYCMPRP | -0.401 |
| RRIRWRPPRLPRPRPRPYDMPRP | 0.0118 |
| RRIRWRPPRLPRPRPRPYDQPRP | -0.395 |
| RRIRWRPPRLPRPRPRPYFCPRP | -0.298 |
| RRIRWRPPRLPRPRPRPYHHPRP | -1.02 |

| Sequence | shrunken log2 fold change |
| --- | --- |
| RRIRWRPPRLPRPRPRPYKPPRP | -0.539 |
| RRIRWRPPRLPRPRPRPYLFPRP | -0.31 |
| RRIRWRPPRLPRPRPRPYMHPRP | -0.48 |
| RRIRWRPPRLPRPRPRPYMPPRP | -0.695 |
| RRIRWRPPRLPRPRPRPYNFPRP | -0.58 |
| RRIRWRPPRLPRPRPRPYPPPRP | -0.332 |
| RRIRWRPPRLPRPRPRPYPQPRP | -0.361 |
| RRIRWRPPRLPRPRPRPYQEPRP | -0.0609 |
| RRIRWRPPRLPRPRPRPYQRPRP | -0.85 |
| RRIRWRPPRLPRPRPRPYRAPRP | -0.399 |
| RRIRWRPPRLPRPRPRPYSDPRP | -0.381 |
| RRIRWRPPRLPRPRPRPYSGPRP | -0.105 |
| RRIRWRPPRLPRPRPRPYSHPRP | -1.09 |
| RRIRWRPPRLPRPRPRPYSIPRP | -0.296 |
| RRIRWRPPRLPRPRPRPYSMPRP | -0.314 |
| RRIRWRPPRLPRPRPRPYVHPRP | -1.18 |
| RRIRWRPPRLPRPRPRPYVKPRP | -0.436 |
| RRIRWRPPRLPRPRPRPYVPPRP | -0.837 |
| RRIRWRPPRLPRPRPRPYVVPRP | -0.256 |
| RRIRWRPPRLPRPRPRPYWAPRP | -0.298 |
| RRIRWRPPRLPRPRPRPYWIPRP | -0.81 |
| RRIRWRPPRLPRPRPRPYYLPRP | -0.843 |
| RRIRYRPPRLPRPRPRPAARPRP | 0.0304 |
| RRIRYRPPRLPRPRPRPADEPRP | -0.451 |
| RRIRYRPPRLPRPRPRPADGPRP | 0.143 |

| Sequence | shrunken log2 fold change |
| --- | --- |
| RRIRYRPPRLPRPRPRPADMPRP | -0.382 |
| RRIRYRPPRLPRPRPRPAEFPRP | -0.266 |
| RRIRYRPPRLPRPRPRPAFDPRP | 0.105 |
| RRIRYRPPRLPRPRPRPAFGPRP | -0.21 |
| RRIRYRPPRLPRPRPRPAFWPRP | 0.444 |
| RRIRYRPPRLPRPRPRPAGPPRP | -0.0366 |
| RRIRYRPPRLPRPRPRPAHDPRP | -1.14 |
| RRIRYRPPRLPRPRPRPAHPPRP | -0.0595 |
| RRIRYRPPRLPRPRPRPAHSPRP | -0.0299 |
| RRIRYRPPRLPRPRPRPAIAPRP | 0.0565 |
| RRIRYRPPRLPRPRPRPALQPRP | -0.1 |
| RRIRYRPPRLPRPRPRPANTPRP | -0.589 |
| RRIRYRPPRLPRPRPRPAQPPRP | -0.0284 |
| RRIRYRPPRLPRPRPRPARHPRP | 0.0712 |
| RRIRYRPPRLPRPRPRPARWPRP | 0.135 |
| RRIRYRPPRLPRPRPRPASIPRP | -0.229 |
| RRIRYRPPRLPRPRPRPATDPRP | -0.327 |
| RRIRYRPPRLPRPRPRPAWRPRP | 0.0762 |
| RRIRYRPPRLPRPRPRPCACPRP | 0.0891 |
| RRIRYRPPRLPRPRPRPCCGPRP | -0.33 |
| RRIRYRPPRLPRPRPRPCDIPRP | -0.334 |
| RRIRYRPPRLPRPRPRPCFSPRP | -0.594 |
| RRIRYRPPRLPRPRPRPCILPRP | 0.00867 |
| RRIRYRPPRLPRPRPRPCKLPRP | -0.698 |
| RRIRYRPPRLPRPRPRPCKNPRP | -1.05 |

| Sequence | shrunken log2 fold change |
| --- | --- |
| RRIRYRPPRLPRPRPRPCLKPRP | -0.0431 |
| RRIRYRPPRLPRPRPRPCLLPRP | -1.04 |
| RRIRYRPPRLPRPRPRPCPIPRP | 0.0143 |
| RRIRYRPPRLPRPRPRPCPSPRP | 0.109 |
| RRIRYRPPRLPRPRPRPCSAPRP | -0.212 |
| RRIRYRPPRLPRPRPRPCSNPRP | -0.00822 |
| RRIRYRPPRLPRPRPRPCSPPRP | -0.0146 |
| RRIRYRPPRLPRPRPRPCSWPRP | -0.272 |
| RRIRYRPPRLPRPRPRPCTTPRP | -0.256 |
| RRIRYRPPRLPRPRPRPCVAPRP | -0.11 |
| RRIRYRPPRLPRPRPRPCVRPRP | 0.0523 |
| RRIRYRPPRLPRPRPRPCVTPRP | -0.000683 |
| RRIRYRPPRLPRPRPRPCVYPRP | -0.197 |
| RRIRYRPPRLPRPRPRPCWSPRP | -0.768 |
| RRIRYRPPRLPRPRPRPDCMPRP | 0.0186 |
| RRIRYRPPRLPRPRPRPDDEPRP | 0.00902 |
| RRIRYRPPRLPRPRPRPDEVPRP | 0.000691 |
| RRIRYRPPRLPRPRPRPDEYPRP | -0.0128 |
| RRIRYRPPRLPRPRPRPDFHPRP | -0.695 |
| RRIRYRPPRLPRPRPRPDGLPRP | -0.528 |
| RRIRYRPPRLPRPRPRPDHRPRP | -0.227 |
| RRIRYRPPRLPRPRPRPDHYPRP | -0.0219 |
| RRIRYRPPRLPRPRPRPDIRPRP | -0.00867 |
| RRIRYRPPRLPRPRPRPDMAPRP | -0.255 |
| RRIRYRPPRLPRPRPRPDMEPRP | -0.0135 |
